The target of the test is T1, hYSK1 on the ProtoArray Human Protein Microarray (human, UniProt O00506 1-426).
T1 construct: hYSK1, human Ste20 family serine/threonine protein kinase; one of 1,800 recombinant human proteins on the array; also called human analog of YSK1; source: bought: ProtoArray Human Protein Microarray (v.1.0), recombinant human protein printed on nitrocellulose slide
The experiment in a line: peptide or protein array; ProtoArray Human Protein Microarray (v.1.0), 1,800 recombinant human proteins on nitrocellulose slides, blocked and probed with biotin-labeled p16^INK4a; detected with streptavidin-Alexa Fluor 647. The following applies: both partners purified.

T1 sequence (O00506 whole entry): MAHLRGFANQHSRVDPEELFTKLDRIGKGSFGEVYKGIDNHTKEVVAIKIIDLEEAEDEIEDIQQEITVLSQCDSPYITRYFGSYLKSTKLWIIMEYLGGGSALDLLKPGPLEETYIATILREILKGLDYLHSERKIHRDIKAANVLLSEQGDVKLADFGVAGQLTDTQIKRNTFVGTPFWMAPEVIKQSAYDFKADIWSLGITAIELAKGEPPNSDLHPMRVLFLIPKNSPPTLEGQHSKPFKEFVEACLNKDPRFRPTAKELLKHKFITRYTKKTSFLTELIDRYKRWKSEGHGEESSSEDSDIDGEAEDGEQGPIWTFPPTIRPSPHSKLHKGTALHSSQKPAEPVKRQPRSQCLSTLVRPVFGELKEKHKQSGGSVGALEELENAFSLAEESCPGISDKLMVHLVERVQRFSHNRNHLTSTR

B1: biotin-labeled p16^INK4a (natural protein, UniProt P42771 1-156, looked up)
chain: MEPAAGSSMEPSADWLATAAARGRVEEVRALLEAGALPNAPNSYGRRPIQVMMMGSARVAELLLLHGAEPNCADPATLTRPVHDAAREGFLDTLVVLHRAGARLDVRDAWGRLPVDLAEELGHRDVARYLRAAAGGTRGSNHARIDAAEGPSDIPD
modifications: biotin (biotinylated; site not stated)
notes: probe for the protein microarray
B1: the binding result is on record as “binds”.

These data come from PMC5687670, “hYSK1 promotes cancer cell proliferation and migration through negative regulation of p16^INK4a under hypoxic conditions” (Oncotarget, 2017).
